Experiment: soluble on expression in E. coli; label from the status in PepcDB or PDB records

Sequence | soluble on expression in E. coli
GPGSMSTGAELLSKALQLQHTRCETYRLWDAKFHCALGGALSASDFETAVNNSIIAAFRCVSLSFRELQCLCRDSTDDACRFLCVWIDELQELEQRHYNISVQFAQLVVQHCTALPLHSSTSQTDMCQTAANEEAENSGVENGSKEVQGTADVSENEKSTVANGERNNSSEVICASLHDRQLCELQRIIPLQAQSVLNYVTCRDDFFPSSSDDECEGDQTGGDGCTSNGADSEPGDLLVPFHHKSGVVATYSPGEVKKRCATFNAAVMPLWRSKLRLRQQLQEKMDELQEEITSASSVFP | soluble
MSLSENPIASVRLLRLQREEASLQQYRDNIGALKSQLTKNETLLDGISANLRDARDLLVAAANQPPTDDLKAMASPLVSLRDSILYAANTKDSEGRYMFSGSAVNNAAIVVDDTQPAGSRYRYNGNGDRQRVTVGEGVTEASNVTLESMAPLLNQLDKAIATLQSPTLDSKDPAVGATIREVMGGVDTALDRVGGTISELGGAQNVLKTLDGNHDSLSLANQESIIELGSLDYGTAYIAMNNLSMALQTSQKAYGKVSQLTLFDVIEGHHHHHH | soluble
MGHHHHHHSHMRIVFDIGGSVLVPEKPDVDFITKLGYELTKISEDHEIAIVVGGGKVAREYIEVASKFNTNETFKDYLGIQITRANAMLLIAALKERAYPQVVSDFWEAWKAIQLKKIPVMGGTHPGHTTDAVSALLAEFLSADLLVVITNVDGVYTEDPKKNPNAKKIPKMKAKDLVDIVSREAGKAGVSTVIDPLAAKIIMRSGIKTYVIG | not soluble
MQTFVLATNSETVSQTLCSYLEGVLDLEDSVYAVNSQPGGDRTPPDAVADGKAALEVVSDRLGDQVSVETYQIIRGNSPADDIFDIAAEVDADELVIGVRKRSQTDRLIFGSVAQDIMRQSDYPMRVVPRD | not soluble
EKPAMEYHWEEVFPELDSKNPMDRREMEQRREYLREKAKEAAAYAERPSSVRLASASLGTQPQEQPKPATPFQSQLTGILPEEQIQRLSEGIDKLAEAGEQLARIGRTAAAMTESYEQMQADQEGLRLNSQSYIQQMESLSRNISGLNTIYEIQLKGISSQIDTIDRINRGLAHIRDMYDNSVIDSSSFRNENERMARQLTQLNEVYARLLQALTTNVGLPGMPGNFGASNPSSSGSSPL | not soluble
MSLINTQRLVDHFLQLIQIDSESGNEKKIAETLAEQLGELGFTVHKLPVPAEVSNGFNLYARLEGTLNDSILFSCHMDTVKPGIGIEPVIEDGIIRSKGNTILGGDDKSGIAAILEAVRVLRDSQQAHKTIEIAFTVHEEGGLKGSEHFDMSKVQAEKAIVLDTGGPIGTIVRAAPGQQKIVALIKGKPAHAGLVPEDGISAIAVAADAITQMKLLRIDEETTANIGIVQGGQATNIVMPELKIVAEARSLNDAKLEAQVQHMIETFERAAEKHGATVEIESTRAYNAFKLEEDNAHIQAIKASFETIGIEPKTKLSGGGSDANNFNAKGLTTVNLSTGMAKVHTTEEYIAIADMVKIAEFVCAYTTA | not soluble
MGSDKIHHHHHHMASAATEGQLADWRTRALKLEDEVKKVIVGQDAAIRLINIAIFARGHVMLEGGVGVGKTTLLQSVARGIGGAYERIEGTVDLMPNDLVYHTFLGPEGRPQIDEGPLLRAGENLSVFFFNEINRARPQVHALMLRVMAERHLHAFKREYRLPHMVVFADRNQVEKNETFEIPSAARDRFMMEIPIHVPEDKALRKSLVFDTRFQHAEQLTHTVESGLLPFNMLNDFSDVVQNHVQSSQALEDYVIDLWDATQKPQDFGITLEGIDMQRLIQAGASPRGMGMLLKAARVHAWLMEREYVYPEDIHAVFHEVIAHRLVFNSMYESRRTVLARELTAKILQTVAVPS | not soluble
MEDLQLQVTMRDFLDALTEVEPSATREFAMEIPTATWEDIGGLEKIKERLQAMVEWPLRYPELFQQFGLQTPKGILLSGPPGTGKTLVAKALARESGINFIPVNSSLLFSHWWGEAEKTLHEVFRKARQASPCLLFFDELDALVPARKAGEGSSIGSRLVSQFLMELDGLEELREVIVLGATNRIDMIDPAVLRPGRFDQILEFPYPDQAARKEIFQIYLRNRPVDPGINLDSLAGAAEGLVGSEIEALCKRAALLAVSEVINHKGAGAYIKTCHLEQALAEIQAEKQQARTGAENHTLRPVWNNVVPGAISQVGRLEHHHHHH | soluble
MSLAAYSLPVDVEAEDCTLGNGAVVTTNVYGTQYPGYSGDGFVWVANSGTITLEVTIPENGMYELSTRCWMYLGKEDETRMQVISINGKSHSNYFIPNKGQWIDYSFGFFYLEAGKATIEIGSSGSWGFILYDKIYFDHADMPDHIIDPTPCDPNATPETRALMKYLTSVYGKYVISGQQEIYGNGNDGNYELEFDYIYEKTGKYPAIRGFDFMNYNPLYGWEDGTTARIIDWVKNRGGIATACWHINIPRDFASYKLGEPVDWTNCTYKPTSSFNTANCLDETTKEHAYLMMAIEDLAEQLLILQEQNIPILFRPFHEAEGYNNTDGSGAWFWWGSAGAEVYKELWKLLYKTLTEKYGIHNLIWEVNLYTYANSYEWYPGDEYVDIIGYDKYEGSPNTWGTSAASSLFLTLVNYTNDTKMVALTENDVIPDIQNIVNEEAWWLYFCPWYGDFLMSPRYNDPVLLNTIYNSEYVITLDELPENLYEYDGEIPDINYGDLNNDGNINSTDYMILKKYILKVLERMNVPEKAADLNGDGSINSTDLTILKRFIMKAITKFPVTQKEGHHHHHH | soluble
MKEDPRIIKTLSKLQKAFVMLLKTYDAGDINVRQISDEAGVTRGAFYSHFSDKKEFVNFTINELVGSLFNSSLEHHHHHH | not soluble
ALGVPFFSCQRGYKGVWRGDGIMQTTCPCGAQITGHVKNGSMRIVGPRTCSNTWHGTFPINAYTTGPCTPSPAPNYSRALWRVAAEEYVEVTRVGDFHYVTGMTTDNVKCPCQVPAPEFFTEVDGVRLHRYAPACKPLLREEVTFLVGLNQYLVGSQLPCEPEPDVAVLTSMDDDDK | soluble
MGSDKIHHHHHHGTISHSVEPGDNLYNLAARYMGNPHAWPDIQKLNHISNPHRLKPGTSLLIPKVSSTVTASFVHGEAWLVDDAGNTIKRIAHGDQLNEGDIVRTGQHSYLSLEFADHSVARILSNTHVRLDRIKESGLVPQGQRVIYLEQGNMDVSVTPAPKCNSQHFKVITPQAVAAVRGTRFSVGVGSVSATSVTQGKVEMQPPQPGKSRSGKMLQAGQGIAASGNGLGEVQPLLAAPDLSQLPSMLPEPELLQFDWPAVNGGSEYQYRIAQDEGMEQVLWNAASYSASATLPSLQDGEYLLAVRALDSYGIPGYEAQHRFIIHSHPSSPWLLSPQQGQPIDGNGILRCTPVEGAQGYHLQIATDDEFRELVVDSGPLDRCQYQLASLAEGDYYWRVASVNAEEEGRLGPYSQPASLTVSQDAHTLPIIAGEAYWTSTLQDARYIAQISRSPRFDTLVAEQELDSPRINIQSLPAGRYYVRLATRLENDTGPFSDARIIEVEHEDNGMDRTWFDKPRS | not soluble
PTDILEHVLLPVATEDDALATVTALEPYEPEQVTALHVVEKGEGVPDKTPVAQSEEVAAESYAAVRTVFPDADDHTAYSRNVVEAIFHAADEVGASAIAYRSRGGGRLMQFLSGDLSLKLVTNAAIPVIALPRADS | not soluble
MGSDKIHHHHHHMSSATHYILTWQCPDNTGVLAKVSQSLFSHGAFITETSQYSDPYSETFFSRIAFDDRNLTVSSSEFVKALNELAKPLAMQYQLRKRADVPNVLIAVSKDDHCLVSLLTKWRSGALPINIVGVISNHQYCQALSEWHNVPFYHLPVNAETKLEQEAQITDLMEELNIDLLVLARYMQILSDGLCQQLQGKAINIHHSFLPSFKGARPYHQAHARGVKVIGATAHYVTANLDEGPIIAQEVKPINHAFTIEQMVHMGHDLEATALSHAVRIHAEQRVCINGDKTVILA | not soluble
MDQTYAEIENIYTLSPIIATTPKRYDVQYIQQKSRKNRNLIDHFDSRLPIEYRYPKKNSSATSSLSSAASRSLASKSLASSSSGYSSLGSTSSITTVFNGLSPFRSKSKNEEFDEQKAPSMRISEDVASIVIGENNSEVEEAVIDEVPEIKKRACCIECREKEIRQELDLESHQYANLQSLQKPQDPYVFLMTSMLTNLQKEDGGRQVVKVQQKIEKVLRLKPREPFNVEQKLVFDRQISTFASDVTIRLRAVSDAAPETYRDVSARFCEALHPGTPNSKGLKNIVKGVKNLLNF | not soluble
MGRDRISELPDGLLNHILMYLHIEESIRTSVLSSRWRKLWLKVPGLDVNVHDFPADGNLFESLMDKFLEVNRGRLQNFKLNYESNLYYLMDRFVPWIATVVDRGIQHLDVTATDCPPWTIDFMPANICKSKTLVSLKLVNVGLDTPKFVVSLPCLKIMHLEDIFYSPLIAENLISGCPVLEDLTIVRNHEDFLNFLRVMSQTLKNFRLTFDWGMGSNDFSVEIDAPGLKYMSFRDSQSDRIVVKNLSSLVKIDLDTEFNLKFGLGSPLEPEDLTKRDIIRDFLTGISSVKHMIISHPTLEVLYRYSKIGQLPKFHNLYHLQAVFSSSLLQLLPAFLEICPNLKNLILDYSISAEPEQIDFTNLPRCLISTLEYVEIKQLTMREESGIKLVKYFLENSAVLKKLTLSFIDSPMTNQESEIYMQLLTSTKRSRGCHVLIL | soluble
MGSDKIHHHHHHMNNKEIFEELATLARQPAIWFAARSFYGHGGNQRPDNSRRLLRVLAETDNNLTAGAIADILAIRPASVTQIIKKLENDEYIQRVRDESDARVVRVKITSKGRKQLELLEDKQSDFQTELFDVFDDDERQRFGESLRKLNEHVMSDEYLDNMRSKMDKHMRFGFDHFVNVSNARKFHENQTGYLKKMRQHQQQSPFNDEDNEGI | not soluble
MARIFTYPLARKRIRMHKPDDKQYDATYFTRWYRDAGLADPARLRRKVALAVAQAEYYLERPIRTVLDVGCGEAAWRAPLLALRPKLQYLGFDSSEYAVQRYGRSRQIHPARFGDFAWLRPCAPVDLLICSDVLHYVPTREFNQGLPGLAEMCAGVAFLETFAEEDAFEGDHEGFQARPARWYRRRFASVGFTALGSHCWLSPQLRGETAALEHS | soluble
MGSDKIHHHHHHMSSKVAKELADFLLQIEQRSQFHAGYPYNLSCDYSAIGKFFNHLLNNAGDPYIEPDFGLHSRKFEQEVLSFFAHLYKIPENQFWGYVTAGGTEGNLYGIFLAREIYPNGILYSSQDSHYSIPKAAKLFRIQHNVVNSQINGEMNYDHFEQLLSENRRYPAIINLNIGTTVKGAIDNLDKVLEILERNQIKDYYIHCDAALSGLILPFLDGAPQVNFQKPIDSVAISAKFIGSPLPCGVVLTKKKWVEKVETEIEYIGSKDTTILGSRNGHTPLILWYAVQTRGYDGLAKEAKTCIHNAQYLFQQLQIREYPCMLNNFSNTVVFQKPSQRLIKKWQLAVFENWAHMIVMQNIVREKIDIFINELLLEQGLLNNAKNFQLQPVLQH | not soluble
MPEFDFSPITEGIYNVIETEEKVLTSLPEETITQKRNRQNRTIKQILGHLIDSTSNNHQRMIRLQYSKDLLFFPDYRQDNDLWIALQDYQHTDWNNLIQLWKFFNLHIIQVIKSVDQTKLDSYWCDFEGTKVTLKEMIEGYLDHLNLHIQEIHELI | not soluble
MGSDKIHHHHHHMSVQESVGGDVTGWWPSDNESLSPYPLYRERFCREGGLQPVFSGRTVLLPLRPGLLLSMREGQALTDLRGKREVGPAMHLEILFAAEGYSVVSGSTERYPFKPNTVSLQVTSSAVVAEFFIPAGAVIRSLAVRFSGLYLDHLASKGGFAALCSGGGDPLLLSRGVDLVMRPLSPALRPLASQILATEGATDGERLFLEAKILELISVVLSTPASGGGQSQTEPTKTALSRRDHKKIGQARELLIGDLDKTWKIKDLARHVGMNENKLKAGFRQIYDNSIYAYLQDWRMRAASHRLKQGEDSVTGVALSVGYSNPAHFAKVFRRYFGVSPSRYAEDGAPGPKKDNETY | not soluble

From the DeepSol protein solubility set
